Tested on: Escherichia coli TOP10
Assay: shrunken log2 fold change of peptide-encoding DNA abundance (4.5 h post-induction vs induction); higher = less antimicrobial activity (less host growth inhibition)
Conditions: time post-induction: 4.5 h; library: site-saturation at positions 5, 18, 19, 20
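Further: peptides expressed intracellularly from a pBAD plasmid library in pooled LB shake-flask culture, induced with 0.3% L-arabinose, DNA abundance read by NGS, three biological replicates, DESeq2 with apeglm shrinkage.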

Sequence | shrunken log2 fold change
RRIRCRPPRLPRPRPRPYTVPRP | -0.207
RRIRCRPPRLPRPRPRPYVKPRP | -0.647
RRIRCRPPRLPRPRPRPYWAPRP | -1.21
RRIRDRPPRLPRPRPRPADKPRP | -0.0463
RRIRDRPPRLPRPRPRPADRPRP | 0.0125
RRIRDRPPRLPRPRPRPAFEPRP | 0.906
RRIRDRPPRLPRPRPRPAFLPRP | 0.000425
RRIRDRPPRLPRPRPRPAGFPRP | 0.0112
RRIRDRPPRLPRPRPRPAGGPRP | 1.11
RRIRDRPPRLPRPRPRPAGHPRP | 0.261
RRIRDRPPRLPRPRPRPAHHPRP | 0.113
RRIRDRPPRLPRPRPRPAHYPRP | 0.0963
RRIRDRPPRLPRPRPRPALPPRP | 0.328
RRIRDRPPRLPRPRPRPAMQPRP | 0.194
RRIRDRPPRLPRPRPRPANRPRP | -0.0377
RRIRDRPPRLPRPRPRPAPMPRP | 0.445
RRIRDRPPRLPRPRPRPASKPRP | -0.0758
RRIRDRPPRLPRPRPRPASRPRP | 0.17
RRIRDRPPRLPRPRPRPATWPRP | 0.754
RRIRDRPPRLPRPRPRPAVHPRP | 0.16
RRIRDRPPRLPRPRPRPAVTPRP | -0.0403
RRIRDRPPRLPRPRPRPAWCPRP | 0.183
RRIRDRPPRLPRPRPRPCDFPRP | 0.0384
RRIRDRPPRLPRPRPRPCGCPRP | 0.317
RRIRDRPPRLPRPRPRPCGEPRP | 0.488

Sequence | shrunken log2 fold change
RRIRDRPPRLPRPRPRPCGPPRP | 0.0478
RRIRDRPPRLPRPRPRPCHEPRP | -0.0135
RRIRDRPPRLPRPRPRPCIAPRP | 0.0755
RRIRDRPPRLPRPRPRPCIVPRP | -0.0549
RRIRDRPPRLPRPRPRPCKIPRP | -0.0385
RRIRDRPPRLPRPRPRPCNGPRP | -0.143
RRIRDRPPRLPRPRPRPCNLPRP | -0.0295
RRIRDRPPRLPRPRPRPCPDPRP | -0.312
RRIRDRPPRLPRPRPRPCPNPRP | -0.02
RRIRDRPPRLPRPRPRPCRRPRP | -0.155
RRIRDRPPRLPRPRPRPCRSPRP | -0.0116
RRIRDRPPRLPRPRPRPCTYPRP | -0.0116
RRIRDRPPRLPRPRPRPCYCPRP | -0.148
RRIRDRPPRLPRPRPRPCYKPRP | 0.0316
RRIRDRPPRLPRPRPRPDADPRP | 0.0193
RRIRDRPPRLPRPRPRPDAIPRP | 0.903
RRIRDRPPRLPRPRPRPDFGPRP | -0.0319
RRIRDRPPRLPRPRPRPDFSPRP | 0.0345
RRIRDRPPRLPRPRPRPDGCPRP | 0.252
RRIRDRPPRLPRPRPRPDGDPRP | -0.0107
RRIRDRPPRLPRPRPRPDHPPRP | -0.76
RRIRDRPPRLPRPRPRPDHTPRP | 0.0303
RRIRDRPPRLPRPRPRPDISPRP | 0.0588
RRIRDRPPRLPRPRPRPDLAPRP | 0.814
RRIRDRPPRLPRPRPRPDLCPRP | -0.0018

Sequence | shrunken log2 fold change
RRIRDRPPRLPRPRPRPDLGPRP | 0.829
RRIRDRPPRLPRPRPRPDLQPRP | 1.54
RRIRDRPPRLPRPRPRPDNCPRP | -0.000924
RRIRDRPPRLPRPRPRPDNGPRP | -0.223
RRIRDRPPRLPRPRPRPDNPPRP | -0.159
RRIRDRPPRLPRPRPRPDNWPRP | -0.232
RRIRDRPPRLPRPRPRPDQLPRP | 0.0963
RRIRDRPPRLPRPRPRPDQQPRP | 0.0408
RRIRDRPPRLPRPRPRPDQYPRP | 0.00642
RRIRDRPPRLPRPRPRPDRIPRP | -0.0411
RRIRDRPPRLPRPRPRPDWEPRP | 0.0165
RRIRDRPPRLPRPRPRPDWSPRP | 0.147
RRIRDRPPRLPRPRPRPDYRPRP | -0.241
RRIRDRPPRLPRPRPRPDYSPRP | 0.0125
RRIRDRPPRLPRPRPRPDYVPRP | -0.0518
RRIRDRPPRLPRPRPRPEADPRP | 1.93
RRIRDRPPRLPRPRPRPEAGPRP | 0.67
RRIRDRPPRLPRPRPRPEAVPRP | 0.0262
RRIRDRPPRLPRPRPRPECPPRP | 0.0118
RRIRDRPPRLPRPRPRPEECPRP | -0.00963
RRIRDRPPRLPRPRPRPEEHPRP | 0.937
RRIRDRPPRLPRPRPRPEHPPRP | 0.054
RRIRDRPPRLPRPRPRPEIPPRP | -0.0405
RRIRDRPPRLPRPRPRPEITPRP | 0.0482
RRIRDRPPRLPRPRPRPEKCPRP | -0.000921

Sequence | shrunken log2 fold change
RRIRDRPPRLPRPRPRPEMTPRP | 0.679
RRIRDRPPRLPRPRPRPENLPRP | 0.0863
RRIRDRPPRLPRPRPRPEPRPRP | 1
RRIRDRPPRLPRPRPRPEQIPRP | -0.0105
RRIRDRPPRLPRPRPRPEQLPRP | 0.104
RRIRDRPPRLPRPRPRPEQVPRP | 0.015
RRIRDRPPRLPRPRPRPESDPRP | 0.000356
RRIRDRPPRLPRPRPRPETKPRP | 0.0655
RRIRDRPPRLPRPRPRPEVGPRP | 0.00896
RRIRDRPPRLPRPRPRPEYIPRP | -0.0149
RRIRDRPPRLPRPRPRPEYQPRP | 0.637
RRIRDRPPRLPRPRPRPFAVPRP | -0.0136
RRIRDRPPRLPRPRPRPFCGPRP | 0.258
RRIRDRPPRLPRPRPRPFCQPRP | -0.00439
RRIRDRPPRLPRPRPRPFDIPRP | 0.289
RRIRDRPPRLPRPRPRPFDVPRP | 0.016
RRIRDRPPRLPRPRPRPFFKPRP | -0.127
RRIRDRPPRLPRPRPRPFGMPRP | -0.0413
RRIRDRPPRLPRPRPRPFGPPRP | -0.0754
RRIRDRPPRLPRPRPRPFHKPRP | -0.0864
RRIRDRPPRLPRPRPRPFIMPRP | -0.147
RRIRDRPPRLPRPRPRPFITPRP | -0.118
RRIRDRPPRLPRPRPRPFKAPRP | -0.334
RRIRDRPPRLPRPRPRPFKMPRP | -0.0853
RRIRDRPPRLPRPRPRPFKWPRP | -0.0034

Sequence | shrunken log2 fold change
RRIRDRPPRLPRPRPRPFLVPRP | -0.199
RRIRDRPPRLPRPRPRPFLWPRP | 0.625
RRIRDRPPRLPRPRPRPFMEPRP | -0.148
RRIRDRPPRLPRPRPRPFMRPRP | 0.05
RRIRDRPPRLPRPRPRPFNCPRP | 0.0412
RRIRDRPPRLPRPRPRPFNKPRP | -1.45
RRIRDRPPRLPRPRPRPFVRPRP | -0.234
RRIRDRPPRLPRPRPRPFYMPRP | -0.735
RRIRDRPPRLPRPRPRPFYRPRP | 0.03
RRIRDRPPRLPRPRPRPGCAPRP | 0.968
RRIRDRPPRLPRPRPRPGCTPRP | 0.727
RRIRDRPPRLPRPRPRPGFQPRP | 0.252
RRIRDRPPRLPRPRPRPGFWPRP | 0.493
RRIRDRPPRLPRPRPRPGHGPRP | -0.0236
RRIRDRPPRLPRPRPRPGMDPRP | 0.216
RRIRDRPPRLPRPRPRPGNAPRP | 0.126
RRIRDRPPRLPRPRPRPGNMPRP | -0.164
RRIRDRPPRLPRPRPRPGPWPRP | 0.287
RRIRDRPPRLPRPRPRPGQQPRP | -0.0114
RRIRDRPPRLPRPRPRPGRLPRP | 0.0513
RRIRDRPPRLPRPRPRPGSWPRP | 0.817
RRIRDRPPRLPRPRPRPGTIPRP | -0.485
RRIRDRPPRLPRPRPRPGVDPRP | 1.36
RRIRDRPPRLPRPRPRPGVKPRP | 0.0336
RRIRDRPPRLPRPRPRPGWEPRP | 0.00884

Sequence | shrunken log2 fold change
RRIRDRPPRLPRPRPRPGWVPRP | 0.223
RRIRDRPPRLPRPRPRPHAPPRP | 0.144
RRIRDRPPRLPRPRPRPHCEPRP | -0.0477
RRIRDRPPRLPRPRPRPHDCPRP | -0.0662
RRIRDRPPRLPRPRPRPHDQPRP | -0.0965
RRIRDRPPRLPRPRPRPHFCPRP | 0.23
RRIRDRPPRLPRPRPRPHFEPRP | 0.163
RRIRDRPPRLPRPRPRPHFLPRP | 0.0122
RRIRDRPPRLPRPRPRPHGPPRP | 0.0119
RRIRDRPPRLPRPRPRPHHAPRP | 0.00408
RRIRDRPPRLPRPRPRPHILPRP | 0.0348
RRIRDRPPRLPRPRPRPHIQPRP | -0.53
RRIRDRPPRLPRPRPRPHKNPRP | -0.296
RRIRDRPPRLPRPRPRPHKTPRP | -0.0521
RRIRDRPPRLPRPRPRPHMGPRP | -0.174
RRIRDRPPRLPRPRPRPHNDPRP | -0.201
RRIRDRPPRLPRPRPRPHNSPRP | 0.0166
RRIRDRPPRLPRPRPRPHPSPRP | 0.0703
RRIRDRPPRLPRPRPRPHPYPRP | 0.0304
RRIRDRPPRLPRPRPRPHQGPRP | -0.00184
RRIRDRPPRLPRPRPRPHQMPRP | 0.00713
RRIRDRPPRLPRPRPRPHQPPRP | -0.017
RRIRDRPPRLPRPRPRPHREPRP | 0.0506
RRIRDRPPRLPRPRPRPHRHPRP | -0.00955
RRIRDRPPRLPRPRPRPHRTPRP | -0.0884
